Patent US20140255405A1 (published 2014)

Tests used:
[1] = target: T1, human IL-6 (human, UniProt P05231 30-212); assay: cell-based or functional assay
[2] = target: T2, Human C1q (Calbiochem, 204876) (human, UniProt P02745 23-245; P02746 28-253; P02747 29-245); assay: ELISA on coated human C1q; preformed complex of antibody and IL6, 11 nM binding sites; anti-human Fc HRP detection
T2 construct: Bought human C1q coated on ELISA plates; also called complement C1q; complement component C1q
Description: (§1) Determination of immune complex binding to complement C1q was performed using ELISA. Human C1q (Calbiochem, 204876) was coated onto maxisorp ELISA plates (NUNC, Denmark) at a concentration of 16 microgram/ml in a buffer containing 10 mM Tris HCl, pH 8 for 1 h and washed twice with 1× phosphate buffered saline supplemented with 0.1% Tween-20 (Merck KGaA, Germany, 8.17072.1000) (PBST). Plates were blocked with 2% skimmed milk powder (Roth, Germany T145.3) in PBST for 30 min and again washed twice with PBST. The prepared plates were then incubated with a preformed complex of antibody and IL6, at an equimolar IL6 and antibody binding site concentration of 11 nM, or with 11 nM antibody incubated without IL6, for 30 min.

[3] = target: T2, Human C1q (Calbiochem, 204876); assay: ELISA on coated human C1q; antibody preincubated with equimolar IL6 or without IL6; anti-human Fc HRP detection
Description: as §1

[4] = target: T1, human IL-6; assay: inferred from IL6-dependent signal in C1q ELISA; antibody preincubated with equimolar IL6 at 11 nM
Description: as §1

T2 sequence (P02745 23-245 limits assumed, chain 1 of 3): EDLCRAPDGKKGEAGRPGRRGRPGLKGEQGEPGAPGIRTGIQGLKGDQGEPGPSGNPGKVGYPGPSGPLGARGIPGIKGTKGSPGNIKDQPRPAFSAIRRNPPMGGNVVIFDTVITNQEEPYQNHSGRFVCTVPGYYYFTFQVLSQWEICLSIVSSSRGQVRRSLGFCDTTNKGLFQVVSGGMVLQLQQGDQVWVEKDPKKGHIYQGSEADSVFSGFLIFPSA
T2 sequence (P02746 28-253 limits assumed, chain 2 of 3): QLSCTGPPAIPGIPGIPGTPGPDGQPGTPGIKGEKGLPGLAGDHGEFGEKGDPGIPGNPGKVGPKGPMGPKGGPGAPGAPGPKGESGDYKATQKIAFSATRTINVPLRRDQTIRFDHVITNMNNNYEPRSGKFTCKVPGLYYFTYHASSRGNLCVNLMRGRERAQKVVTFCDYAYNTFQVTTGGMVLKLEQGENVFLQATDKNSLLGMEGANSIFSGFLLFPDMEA
T2 sequence (P02747 29-245 limits assumed, chain 3 of 3): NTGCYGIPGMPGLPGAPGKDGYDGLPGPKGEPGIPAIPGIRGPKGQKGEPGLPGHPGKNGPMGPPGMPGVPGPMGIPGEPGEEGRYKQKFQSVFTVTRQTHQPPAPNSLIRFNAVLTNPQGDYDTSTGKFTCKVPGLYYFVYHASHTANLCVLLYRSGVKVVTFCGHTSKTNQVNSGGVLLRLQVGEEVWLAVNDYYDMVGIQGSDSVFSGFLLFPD

Row | Binder | IC50 on 7TD1 cells (pM) [1] [pM] | IC50 on B9 cells (pM) [1] [pM] | binding result [2] | binding result [3] | binding result [4]
1 | DVD-45 (bispecific antibody, human IgG1, kappa, Bispecific, tetravalent human IgG1 dual variable domain IgG: variable domains of Mab4 appended to the N-termini of the variable domains of Mab5) heavy: not shown light: DIVLTQSPASLAVSLGQRATISCRASESVGNFGISFMNWFQQKPGQPPKLLIYTASNQGSGVPARFSGSGSGTDFSLNIHPMEEDDSAMYFCQQSKEIPWTFGGGTKLEIKSPAPNLLGGPAIQMTQSPSSLSASVGDRVTITCQASQSINNELSWYQQKPGKAPKLLIYRASTLASGVPSRFSGSGSGTDFTLTISSLQPDDFATYYCQQGYSLRNIDNAFGGGTKVEIKRTVAAPSVFIFPPSDEQLKSGTASVVCLLNNFYPREAKVQWKVDNALQSGNSQESVTEQDSKDSTYSLSSTLTLSKADYEKHKVYACEVTHQGLSSPVTKSFNRGEC | 1.3 | 2.9 | binds |  | 
2 | Mab4 (antibody, human IgG1, kappa) heavy: not shown light: DIVLTQSPASLAVSLGQRATISCRASESVGNFGISFMNWFQQKPGQPPKLLIYTASNQGSGVPARFSGSGSGTDFSLNIHPMEEDDSAMYFCQQSKEIPWTFGGGTKVEIKRTVAAPSVFIFPPSDEQLKSGTASVVCLLNNFYPREAKVQWKVDNALQSGNSQESVTEQDSKDSTYSLSSTLTLSKADYEKHKVYACEVTHQGLSSPVTKSFNRGEC | 2.6 | 8.4 |  | no binding (tested: 11 nM) | 
3 | Mab4-5L5H (bispecific antibody, human IgG1, kappa, Bispecific, tetravalent human IgG1-scFv fusion: Mab5 scFv (VL-VH) fused to the C-terminus of CH3 of Mab4) heavy: not shown light: DIVLTQSPASLAVSLGQRATISCRASESVGNFGISFMNWFQQKPGQPPKLLIYTASNQGSGVPARFSGSGSGTDFSLNIHPMEEDDSAMYFCQQSKEIPWTFGGGTKVEIKRTVAAPSVFIFPPSDEQLKSGTASVVCLLNNFYPREAKVQWKVDNALQSGNSQESVTEQDSKDSTYSLSSTLTLSKADYEKHKVYACEVTHQGLSSPVTKSFNRGEC |  |  | binds |  | binds
4 | Mab5 (antibody, human IgG1, kappa, V domains shown) VH: EVQLVESGGGLVQPGGSLRLSCAASGFSLSNYYVTWVRQAPGKGLEWVGIIYGSDETAYATSAIGRFTISRDNSKNTLYLQMNSLRAEDTAVYYCARDDSSDWDAKFNLWGQGTLVTVSS VL: AIQMTQSPSSLSASVGDRVTITCQASQSINNELSWYQQKPGKAPKLLIYRASTLASGVPSRFSGSGSGTDFTLTISSLQPDDFATYYCQQGYSLRNIDNAFGGGTKVEIKR | 19.9 | 26.1 |  |  | 
5 | DVD-D5 (antibody, Monospecific control: dual variable domain human IgG1 like DVD-45 but with the Mab4 VL replaced by a germline-like dummy VL) heavy: not shown light: DTQMTQSPSSLSASVGDRVTITCRASQSISSYLAWYQQKPGKAPKLLIYAASSLYSGVPSRFSGSGSGTDFTLTISSLQPEDFATYYCQQYSSLPYTFGQGTKLEIKSPAPNLLGGPAIQMTQSPSSLSASVGDRVTITCQASQSINNELSWYQQKPGKAPKLLIYRASTLASGVPSRFSGSGSGTDFTLTISSLQPDDFATYYCQQGYSLRNIDNAFGGGTKVEIKRTVAAPSVFIFPPSDEQLKSGTASVVCLLNNFYPREAKVQWKVDNALQSGNSQESVTEQDSKDSTYSLSSTLTLSKADYEKHKVYACEVTHQGLSSPVTKSFNRGEC |  |  |  | no binding (tested: 11 nM) | 
